The results in this text go back to patent publication US20200123260A1.

Holding throughout (experiment): cell-based or functional assay
Test [1] has as its target hTrkB-a isoform fused to a small peptide epitope, in U2OS cells (Discoverx Pathhunter) (human) (UniProt Q16620).
Test [2] concerns the target hTrkC in the SHC1 recruitment assay (U2OS, Discoverx Pathhunter) (human) (UniProt Q16288).
For test [3], the target named is hTrkA in the SHC1 recruitment assay (U2OS, Discoverx Pathhunter) (human) (UniProt P04629).
Sequence of hTrkA in the SHC1 recruitment assay (U2OS, Discoverx Pathhunter) (human) (P04629 33-796): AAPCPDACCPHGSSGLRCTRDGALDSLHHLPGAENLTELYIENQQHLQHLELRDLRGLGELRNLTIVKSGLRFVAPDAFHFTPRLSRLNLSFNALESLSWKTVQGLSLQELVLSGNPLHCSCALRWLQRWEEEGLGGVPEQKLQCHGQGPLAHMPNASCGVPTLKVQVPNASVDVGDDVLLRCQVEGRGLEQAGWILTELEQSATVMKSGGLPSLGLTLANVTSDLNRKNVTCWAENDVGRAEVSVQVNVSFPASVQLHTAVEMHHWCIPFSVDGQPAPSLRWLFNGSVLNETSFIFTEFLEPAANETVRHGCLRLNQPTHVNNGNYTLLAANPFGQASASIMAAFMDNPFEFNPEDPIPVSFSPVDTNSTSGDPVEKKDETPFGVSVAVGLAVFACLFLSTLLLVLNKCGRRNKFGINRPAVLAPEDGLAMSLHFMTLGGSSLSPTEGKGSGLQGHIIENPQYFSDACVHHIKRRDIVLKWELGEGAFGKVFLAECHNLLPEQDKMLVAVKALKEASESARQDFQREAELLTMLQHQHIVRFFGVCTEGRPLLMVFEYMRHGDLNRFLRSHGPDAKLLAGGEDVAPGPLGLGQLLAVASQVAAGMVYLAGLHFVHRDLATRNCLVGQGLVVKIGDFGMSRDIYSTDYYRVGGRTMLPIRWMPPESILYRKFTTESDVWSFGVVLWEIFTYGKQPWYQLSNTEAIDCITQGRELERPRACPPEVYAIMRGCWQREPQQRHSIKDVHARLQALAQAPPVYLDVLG

Sequence of hTrkB-a isoform fused to a small peptide epitope, in U2OS cells (Discoverx Pathhunter) (human) (Q16620 32-822): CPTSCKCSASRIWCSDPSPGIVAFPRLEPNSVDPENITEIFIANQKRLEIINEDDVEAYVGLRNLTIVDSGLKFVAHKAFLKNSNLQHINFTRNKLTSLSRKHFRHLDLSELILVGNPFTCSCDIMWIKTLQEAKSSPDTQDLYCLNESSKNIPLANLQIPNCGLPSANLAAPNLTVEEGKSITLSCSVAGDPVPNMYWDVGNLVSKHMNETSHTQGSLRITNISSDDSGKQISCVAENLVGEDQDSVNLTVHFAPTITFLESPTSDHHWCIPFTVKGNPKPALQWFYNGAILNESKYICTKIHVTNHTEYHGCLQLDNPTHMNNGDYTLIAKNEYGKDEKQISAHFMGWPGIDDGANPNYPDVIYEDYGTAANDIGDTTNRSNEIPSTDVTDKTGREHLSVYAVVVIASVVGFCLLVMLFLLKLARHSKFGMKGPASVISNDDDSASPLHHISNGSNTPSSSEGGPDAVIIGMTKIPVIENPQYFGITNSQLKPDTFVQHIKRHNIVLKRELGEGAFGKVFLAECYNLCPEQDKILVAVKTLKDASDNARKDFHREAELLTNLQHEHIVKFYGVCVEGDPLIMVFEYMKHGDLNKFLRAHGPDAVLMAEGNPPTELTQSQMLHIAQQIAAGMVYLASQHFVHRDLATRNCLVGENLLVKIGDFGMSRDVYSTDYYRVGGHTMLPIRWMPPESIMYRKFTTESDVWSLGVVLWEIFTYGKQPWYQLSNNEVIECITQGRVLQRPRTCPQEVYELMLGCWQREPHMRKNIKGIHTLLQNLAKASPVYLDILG
Sequence of hTrkC in the SHC1 recruitment assay (U2OS, Discoverx Pathhunter) (human) (Q16288 32-839): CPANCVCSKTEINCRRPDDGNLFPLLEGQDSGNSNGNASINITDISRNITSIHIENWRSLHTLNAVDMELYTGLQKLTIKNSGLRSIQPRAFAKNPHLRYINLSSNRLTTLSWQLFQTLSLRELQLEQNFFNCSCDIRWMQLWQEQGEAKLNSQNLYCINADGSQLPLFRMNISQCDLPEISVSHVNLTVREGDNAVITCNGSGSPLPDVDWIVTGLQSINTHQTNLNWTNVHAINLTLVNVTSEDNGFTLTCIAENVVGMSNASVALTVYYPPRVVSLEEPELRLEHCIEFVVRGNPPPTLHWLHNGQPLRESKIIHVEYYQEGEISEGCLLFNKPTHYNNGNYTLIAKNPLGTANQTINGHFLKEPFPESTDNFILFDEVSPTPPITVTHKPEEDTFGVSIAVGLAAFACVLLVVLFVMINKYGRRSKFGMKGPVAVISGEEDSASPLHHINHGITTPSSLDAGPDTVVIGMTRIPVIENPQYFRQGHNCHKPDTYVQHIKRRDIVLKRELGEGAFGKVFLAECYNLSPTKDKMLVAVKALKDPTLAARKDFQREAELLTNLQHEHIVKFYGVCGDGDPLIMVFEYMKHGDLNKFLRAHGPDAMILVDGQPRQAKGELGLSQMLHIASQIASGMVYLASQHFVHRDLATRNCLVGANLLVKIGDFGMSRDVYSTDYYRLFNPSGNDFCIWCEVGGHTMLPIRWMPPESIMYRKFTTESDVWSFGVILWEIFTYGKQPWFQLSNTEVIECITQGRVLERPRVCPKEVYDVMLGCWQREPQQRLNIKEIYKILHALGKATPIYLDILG
Sequence of NGF (R&D 256GF) (ligand) (P01138 122-241): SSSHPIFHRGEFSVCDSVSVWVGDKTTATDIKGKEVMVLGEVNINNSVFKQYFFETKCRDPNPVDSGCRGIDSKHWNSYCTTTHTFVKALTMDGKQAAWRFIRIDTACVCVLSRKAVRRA

Take NGF (R&D 256GF) (ligand): the EC50, SHC1 recruitment assay in test [1] stood at 1.59 nM.
As for hIgG control antibody, the Fold-increase, SHC1 recruitment assay in test [1] was 1.1 fold; in test [2], 1 fold; in test [3] it was 1.1 fold.
